Assay: yeast display, Sf9 membrane polyspecificity reagent, FACS + sequencing; frameworks hold sequencing errors
Outline: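 Polyreactivity labels are assigned by the sorting gate from which each nanobody was recovered. The gates were low and high (top ~1%), set on anti-HA fluorescence for expression and streptavidin fluorescence for reagent binding. Before sorting, galactose-induced (36–48 hours) yeast display cells were stained for 1 hour at 4 °C with 10% biotinylated, detergent-solubilized Sf9 membrane reagent.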

Sequence	polyreactivity (PSR sort gate)
QVQLVESGGGLVQAGGSLRLSCAASGSIAGNAMGWYRQAPGKERELVAAITFRGSGTYYADSVKGRFTISRDNAKNTVYLQMNSLKPEDTAVDYCNAYRRGLSVYGYWGQGTQVTVSS	high polyreactivity
QVQLVESGGGLVQAGGSLRLSCAASGSIAMGWYRQAPGKERELVATISSSGGSTYYADSVKGRFTISRDNAKNTVYLQMNSLKPEDTAVYYCNTPQYLGPLYSEFDYWGQGTQVTVSS	low polyreactivity
QVQLVESGGGLVQAGGSLRLSCAASGSIAMGWYRQAPGKERELVATISSSGGSTYYADSVKGRFTISRDNAKNTVYLQMNSLKPEDTAVYYCNTQAVYGGGEGGYDYWGQGTQLTVSS	low polyreactivity
QVQLVESGGGLVQAGGSLRLSCAASGSICERYAMGWYRQAPGKERELVAAISWRGTRTFYADSVKGRFTISRDNAKNTVYLQMNSLKPEDTAVYYCAADSRPPKYDYWGQGTQVTVSS	high polyreactivity
QVQLVESGGGLVQAGGSLRLSCAASGSICISYAMGWYRPAPGKERELVAAINYSGGSTYYADSVKGRFTISRDNAKNTVYLQMNSLKPDDTAVYYCAKRSTYRYYGYKLRDYWGQGTQVTVSS	low polyreactivity
QVQLVESGGGLVQAGGSLRLSCAASGSICRLYAMGWYRPARGKEREFVAGITRRTGSTYYADSVKWRFTISRDNAKNTVYLQMTSLKPEETAVYYCAKRDARATPFGYWGLGTQVTVSS	high polyreactivity
QVQLVESGGGLVQAGGSLRLSCAASGSICSLYAKGWYRQEPGKERELVAAISSSGTSTYYADSVKGRFTISRDNSKNTVYLQMNSLKLEDTAVYYCNAYRRRATYNGDYWGQGTQLTVSS	high polyreactivity
QVQLVESGGGLVQAGGSLRLSCAASGSICSSYAMGWYRQAPGKERELVAAISGSGGSTFYADSVKGRFTISRDNAKNTVYLQMNSLKPEDTAVYYCAARYYWYGRAGKKHASYYYWGQGTQVTVSS	high polyreactivity
QVQLVESGGGLVQAGGSLRLSCAASGSIDSKYTMGWYRQAPGKERELVAAIRGSGVRTYYADSVKGRFTISRDNAKNTVYLQMNSLKPEDTAVYYCAKVVYRGKVALWISSTAGSDYWGQGTQVTVSS	low polyreactivity
QVQLVESGGGLVQAGGSLRLSCAASGSIFAANAMGWYRQAPGKERELVADITRGDGTNYADSVKGRFTISRDNAKNTVYLQMNSLKPEDTAVYYCAAEPSQRYPWSGYDYWGQGTQVTVSS	low polyreactivity
QVQLVESGGGLVQAGGSLRLSCAASGSIFAANAMGWYRQATGKESELVAAISWSGGSTYADSVKGRFTISRDNAKNTVYLQMNSLKPEDTAVYYCNAFVYVGTGRGYDTLDYWGQGTQVTVSS	low polyreactivity
QVQLVESGGGLVQAGGSLRLSCAASGSIFAFNAMGWYRQAPGKERELVAAITRSGGRTFYADSVKGRFTISRDNAKNTVYLQMNSLKPEDTAVYYCAASEWRFSSYGGVKYYVEYDYWGQGTQVTVSS	high polyreactivity
QVQLVESGGGLVQAGGSLRLSCAASGSIFAFNAMGWYRQAPGKERELVAAITSGGNTYYADSVKGRFTISRDNAKNTVYLQMNSLKPEDTAVYYWATVFSVQGWYFGMNYWGQGTQVTVSS	low polyreactivity
QVQLVESGGGLVQAGGSLRLSCAASGSIFAFNAMGWYRQAPGKERELVAGITISDSTNYADSVKGRFTISRDNAKNTVYLQMNSLKPEDTAVYYCNADYEQYVYWYWFIKYDYWGQGTQVTVSS	low polyreactivity
QVQLVESGGGLVQAGGSLRLSCAASGSIFAGNAMGWYRQAPGKERELVAAITFSAGRTSYADSVKGRFTISRDNAKNTVYLQMNSLKPEDTAVYYCAARYRTDYYPEYDYWGQGTQVTVSS	low polyreactivity
QVQLVESGGGLVQAGGSLRLSCAASGSIFAGNAMGWYRQPPGKERELVASISWRGGSTYYADSVKGRFTISRDNAKKTVYLQMNSLKPEDTAVYYCNADLVLFPLTWPYYYWGQGTQVTVSS	low polyreactivity
QVQLVESGGGLVQAGGSLRLSCAASGSIFAGYAMGWYRQAPGKERELVAAISWSGGRTYYADSVKGRFTISRDNAKNTVYLQMNSLKPEDTAVYYCAALYIYRTYAALSRYDYWGQGTQVTVSS	high polyreactivity
QVQLVESGGGLVQAGGSLRLSCAASGSIFALNVMGWYRQAPGKEREFVAAISVRSGSTYYADSVKGRFTISRDNAKNTVYLQMNSLKPEDTAVYYCAARTSRFWRGGGLDYWGQGTQVTVSS	high polyreactivity
QVQLVESGGGLVQAGGSLRLSCAASGSIFAPNAMGWYRHAPGKERELVAAISRSGGRTYYADSVKGRFTISRDNAKNTVYLQMNSLKPEDTAVYYCAADYKHQRTYGSWGQGTQVTVSS	high polyreactivity
QVQLVESGGGLVQAGGSLRLSCAASGSIFAPNAMGWYRQAPRKEREFVAGITQSGTSTYADSVKGRFTISRDNAKNTVYLQMNSLKPEDTAVYYCAAEYYYGYWYGYIISYDYWGQGTQVTVSS	high polyreactivity
QVQLVESGGGLVQAGGSLRLSCAASGSIFARYAMGWYRQAPGKERELVAAITSGGITNYADSVKGRFTISRDNAKNTVYLQKNSLKPEDTAVYYCAARRSGRVRYDYWGQGTQVTVSS	high polyreactivity
QVQLVESGGGLVQAGGSLRLSCAASGSIFARYAMGWYRQAPGKERELVAAITYSGGSTYYADSVKGRFTISRYNAKNTVYLQMNSLKPEDTAVYYCALRSGYGRWYPYDYWGQGTQVTVSS	high polyreactivity

Sequence	polyreactivity (PSR sort gate)
QVQLVESGGGLVQAGGSLRLSCAASGSIFASNAMGWYRQAPGKEREFVAAIYWSGTRTYYADSVKGRFTISRDNAKNTVYLQLKSLKPEDTAVYYCAALTVLRNDYWGQGTQVSVSS	low polyreactivity
QVQLVESGGGLVQAGGSLRLSCAASGSIFASNAMGWYRQAPGKERELVAAIDDDGSTDYADSVKGRFTISRDNAKNTVYLQMNSLKPEDTAVYYCAVVTFWWGWTKYRGGFYWGQGTQVTVSS	low polyreactivity
QVQLVESGGGLVQAGGSLRLSCAASGSIFASNAMGWYRQAPGKQWELVAAINSGTRTKYADSVKGRFTISRDNAKNTVYLQMNSRKPEDTAVYYCAARFKGERGPAHYYWGQGTQVTVSS	high polyreactivity
QVQLVESGGGLVQAGGSLRLSCAASGSIFATNAMGWYRQAPGKERELGASSSSGGGSTYYADSVKGRFTISRDNAKNTVYLQLNSLKPEDTADSYCARRIGPGSRPSWLETWRYPYDYWGQGTQVTVSS	low polyreactivity
QVQLVESGGGLVQAGGSLRLSCAASGSIFATYAMGWYRQAPGKERELVAAISRSGGSTNYADSVKGRFTISRDNAKNTVYLQMNSLKPEDTAVYYCAAVRPHWYGQGWALYWFEYWGQGTQVTVSS	low polyreactivity
QVQLVESGGGLVQAGGSLRLSCAASGSIFATYAMGWYRQAPGKERELVADISWNGGSTYYADSVKGRFTISRDNAKNTVYLQMNSLKPEDTAVYYCAVGYWGRFGFRGYGYWGQGTQVTVSS	low polyreactivity
QVQLVESGGGLVQAGGSLRLSCAASGSIFAVNAMGWYRQAPGKERELVAAISFGGGDTYYADSVKGRFTISRDNAKNTVYLQMNSLKPEDTAVYYCAADVITRGVKYLGQVAYEYWGQGTQVTVSS	low polyreactivity
QVQLVESGGGLVQAGGSLRLSCAASGSIFAVNAMGWYRQAPGKERELVAAISWRDTGTYYADSVKGRFTISRDNAKNTVYLQMNSLKPEDTAVYYCAADAQVNPYYPDEYWGQGTQVTVSS	low polyreactivity
QVQLVESGGGLVQAGGSLRLSCAASGSIFAVYAMGRYRPAPGKERELVAASSTDYADSVKGRVTISRDNAKNTVYLQMNSLKPEDTAVYYCAKVGFGIPGGFYYWGHGTQVTVSS	low polyreactivity
QVQLVESGGGLVQAGGSLRLSCAASGSIFAVYAMGWYRQAPGNERELVAVITRSGGSTYYADSVKGRFTISRDNAKNTVYLQMNSLKPEDTAVYYCAARTGYGYTRYEYWGQGTQVTVSS	high polyreactivity
QVQLVESGGGLVQAGGSLRLSCAASGSIFAWYAMGWYRQAPGKERELVATITWSGGSTYYADSVKGRFTITRDNAKNTVYLQINSLKPEDTAVYYCAAEVVGIWYDLWYQGDYWGQGTQVTVSS	low polyreactivity
QVQLVESGGGLVQAGGSLRLSCAASGSIFAYNAMGWYRQAPGKEREFVAAISLSGGRTYYADSVKGRFTISRDNAKNTVYLQMNSLKPEDTAVYYCATDGIRLTRHRDYDYWGQGTQVTVSS	low polyreactivity
QVQLVESGGGLVQAGGSLRLSCAASGSIFAYNAMGWYRQAPGKEREFVAAISQCGGRTYYADSVKGRFTISRDNAKTTVYLQMNSLKPEDTAVYYCATDGIRLTRHRDYDYWGQGTQVTVSS	low polyreactivity
QVQLVESGGGLVQAGGSLRLSCAASGSIFAYNTMGWYRQAPGKERELVAAITGRAGSTYYADSVKGRFTISRDNAKNTVYLQMNSLKPEDTAVYYCNAPTWVRGGYDYWGQGTQVTVSS	high polyreactivity
QVQLVESGGGLVQAGGSLRLSCAASGSIFAYNVMGWYRQAPGKEREFVAAISSGGRTTYADSVKGPFTISRDNAKNTVYLQMNSLKAEDTAVYYFNAYFLVHYRRLRPYEYWGQGTQVTVSS	low polyreactivity
QVQLVESGGGLVQAGGSLRLSCAASGSIFAYYAMGRNRQAPGKERELVAAITFSGVSTYYADSVKGRFTISRDNAKNTVYLQMNILKPEDTAVYYCAADPYQNYWWWYDYWGQGTQVTVSS	low polyreactivity
QVQLVESGGGLVQAGGSLRLSCAASGSIFAYYAMGWYRQAPGKERELVAAISRRAGTTYYADSVKGRFTISRDNAKNTVYLQMNSLKPEDTAVYYCAKVSSVWYPRVDYWGQGTQVTVSS	low polyreactivity
QVQLVESGGGLVQAGGSLRLSCAASGSIFAYYAMGWYRQAPGKERELVAAISRSGVSTYYADSVKGRFTISRDNAKNTVYLQMNSLKPEDTAVYYCAARWRSGFTSGDYWGQGTQVTVSS	low polyreactivity
QVQLVESGGGLVQAGGSLRLSCAASGSIFAYYAMGWYRQPPGKERELVAAISYSVDGTYYADSVKGRFTISRDNAYNTVYLQMNSLKPEDTAVYYCATQIYPLDFYQGDWNDYWGQGTQVTVSS	low polyreactivity
QVQLVESGGGLVQAGGSLRLSCAASGSIFAYYTMGWSRQAPGKERELVAAITSGGSTNYADSVKGRFTISRDNAKNTVYLQMNSLKPEDTAVYYCAVQGSRYSYRYGYRFRTMDYWGQGTQVTVSS	high polyreactivity
QVQLVESGGGLVQAGGSLRLSCAASGSIFAYYTMGWSRQAPGKERELVATISSRGGSTNYADSVKGRFTISRDNAKNTVYLQMNSLKPEDTAVYYCNTAGAADRRRAYDHDYWGQGTQVTVSS	high polyreactivity

From the nanobody polyreactivity screen of Harvey et al. (2022)
